From US20030064069A1 (CAMBRIDGE ANTIBODY TECHNOLOGY, published 2003) come the findings set out here.

The target of assay [1] is T1, Recombinant human TGFβ1 (active TGFβ1) (human, UniProt P01137 279-390).
T1 construct: mature; Recombinant human TGFβ1 from R&D Systems; also called TGFb1
The experiment in a line: radioreceptor assay (RRA): scFv inhibits [125I]TGFβ1 binding to A549 cells; approx IC50. From the text:
(§1) The scFv fragments were subsequently tested for their ability to neutralise binding of ¹²⁵I-TGFβ₁ to A549 cells in a radioreceptor binding assay (RRA), using the protocol described in Example 3 (see below). For the RRA, individual clones were expressed as soluble scFv and subsequently purified from periplasmic preparations by immobilised metal affinity chromatography (IMAC) followed by fractionation of monomeric scFv by gel filtration FPLC on a Superdex 75 column (Pharmacia).
(§2) A549 cells were seeded into 24-well plates at 2×10⁵ cells per well for 24 hours in order to achieve >90% confluency. Immediately before the assay, monolayers were washed twice with buffer (1:1 DMEM:Hams-F12) and 0.5 ml assay buffer (1:1 DMEM:Hams F12+0 1% BSA) was added. Two or three-fold serial dilutions of antibodies were prepared in assay buffer and added to an equal volume of 40 pM [¹²⁵I]TGFβ₁ in assay buffer.

Assay [2] concerns the target T2, Recombinant human latent TGFβ1 (human, UniProt P01137 30-278; P01137 279-390).
T2 construct: domain: latency associated peptide;mature; From R&D Systems
The experiment in a line: radioreceptor assay and TF1 proliferation assay in the presence of latent TGFβ1.

Assay [3] deals with T1, Recombinant human TGFβ1 (active TGFβ1). The experiment in a line: radioreceptor assay, his-preps of scFv (FIG. 2); reference JT182 scFv. Here is the method: as §2
Purified preparations of SL15S scFv, SL15A IgG4, SL15S IgG4 and Mab ID.11.16 (Genzyme mAb) were also analysed (FIG. 3).

For assay [4] the target is unchanged. The experiment in a line: radioreceptor assay: inhibition of [125I]TGFβ1 binding to A549 cells; reference CS37 scFv.
Description: as §1, §2

T1 sequence (P01137 279-390 limits assumed): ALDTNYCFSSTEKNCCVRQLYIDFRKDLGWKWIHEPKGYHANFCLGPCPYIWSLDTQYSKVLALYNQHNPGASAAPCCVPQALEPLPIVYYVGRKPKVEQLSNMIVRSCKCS
T2 sequence (P01137 30-278 limits assumed, chain 1 of 2): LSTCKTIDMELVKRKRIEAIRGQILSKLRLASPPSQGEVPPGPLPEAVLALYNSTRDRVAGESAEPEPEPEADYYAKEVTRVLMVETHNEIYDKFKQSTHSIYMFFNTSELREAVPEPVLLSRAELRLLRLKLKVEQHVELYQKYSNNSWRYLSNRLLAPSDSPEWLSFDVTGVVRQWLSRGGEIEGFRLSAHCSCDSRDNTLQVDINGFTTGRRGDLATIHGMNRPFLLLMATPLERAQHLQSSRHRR
T2 sequence (P01137 279-390 limits assumed, chain 2 of 2): as the sequence (P01137 279-390 limits assumed) above

B1: CS37 scFv (31G9 VH/CS37 VL) (scFv, V domains shown)
VH: QVQLVQSGGGVVQPGRSLRLSCAASGFTFSSYGMHWVRQAPGKGLEWVAVISYDGSIKYYADSVKGRFTISRDNSKNTLYLQMNSLRAEDTAVYYCARTGEYSGYDTSGVELWGQGTTVTVSS
VL: EIVLTQSPSSLSASVGDRVTITCRASQGIGDDLGWYQQKPGKAPILLIYGTSTLQSGVPSRFSGSGSGTDFTLTINSLQPEDFATYYCLQDSNYPLTFGGGTRLEIK
notes: not shown: scFv linker, domain order and tag (on phage: the pCANTAB6 gene III fusion); WO97/13844 is cited for CS37
As to B1, the IC50 in assay [1] lay in the range of 10 to 15 nM.

B2: JT182 scFv (JT182 VH/CS37 VL) (scFv, V domains shown)
VH: QVQLVESGGGVVQPGRSLRLSCAASGFTFSSYGMHWVRQAPGKELEWVAVISYDGSIKYYADSVKGRFTISRDNSKNTLYLQMNSLRAEDTAVYYCARTGEYSGYDTPASPDWGQGTTVTVSS
VL: EIVLTQSPSSLSASVGDRVTITCRASQGIGDDLGWYQQKPGKAPILLIYGTSTLQSGVPSRFSGSGSGTDFTLTINSLQPEDFATYYCLQDSNYPLTFGGGTRLEIK
notes: used as his-prep; not shown: scFv linker, domain order and His tag
With B2, the 50% inhibitory concentration (IC50) in assay [1] was in the range of 0.5 to 1 nM.

B3: SL15S scFv (SL15 VH/SL15S VL) (scFv, V domains shown)
VH: EVQLVESGGGVVQPGRSLRLSCAASGFTFSSYGMHWVRQAPGKELEWVAVISYDGSIKYYADSVKGRFTISRDNSKNTLYLQMNSLRAEDTAVYYCARTGEYSGYDTDPQYSWGQGTTVTVSS
VL: EIVLTQSPSSLSASVGDRVTITCRSSQGIGDDLGWYQQKPGKAPILLIYGTSTLQSGVPSRFSGSGSGTDFTLTINSLQPEDFATYYCLQDSNYPLTFGGGTRLEIK
notes: soluble scFv was purified by IMAC ('his-preps') and FPLC; also called CAT-191; CAT 191; not shown: scFv linker, domain order and His/other tag (on phage: the pCANTAB6 gene III fusion)
On to B3, for which, in assay [2], the binding result was “no binding”. For the same molecule, the “fold more active than JT182 scFv” value in assay [3] turned out to be 10 fold. Besides, the “fold better than CS37 (IC50 in the RRA)” value in assay [4] is at least 100 fold. In assay [1], the 50% inhibitory concentration (IC50) was around 0.1 nM.

What is called IC50 is the concentration at which inhibition is half-maximal.
